This is an account of results in patent US20250042956A1 (University of California, published 2025).

In one test the target is T1, AT5G67580.1 TRB2 (Arabidopsis thaliana, UniProt Q9FJW5 1-299).
T1 construct: Endogenous protein found by mass spectrometry
T1 sequence: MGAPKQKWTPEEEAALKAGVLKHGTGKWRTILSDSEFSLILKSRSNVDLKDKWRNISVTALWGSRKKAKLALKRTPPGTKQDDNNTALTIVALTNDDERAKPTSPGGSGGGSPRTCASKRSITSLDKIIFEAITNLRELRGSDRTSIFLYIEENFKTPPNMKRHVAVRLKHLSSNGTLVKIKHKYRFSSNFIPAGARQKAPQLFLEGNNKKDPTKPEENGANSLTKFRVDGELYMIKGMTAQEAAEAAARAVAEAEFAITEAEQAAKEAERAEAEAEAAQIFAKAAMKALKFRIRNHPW
As to the kind of experiment: IP-MS rep 2. The method, boiled down: (§1)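 Peptide counts for co-purified proteins come from mass spectrometry of proteins pulled down from Arabidopsis floral buds with anti-FLAG magnetic beads. Ten grams of unopened buds from wild-type and FLAG-tagged transgenic lines were ground in liquid nitrogen and homogenised in 25 mL IP buffer. Lysates were held with 250 μL anti-FLAG M2 magnetic beads at 4° C for 2 hours, and bound proteins were eluted in TBS with 250 μg/mL 3×FLAG peptides.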

A further test deals with T2, AT3G20740.1 FIE (Arabidopsis thaliana, UniProt Q9LT47 1-369).
T2 construct: Endogenous protein found by mass spectrometry; also called FERTILIZATION INDEPENDENT ENDOSPERM
T2 sequence (looked up): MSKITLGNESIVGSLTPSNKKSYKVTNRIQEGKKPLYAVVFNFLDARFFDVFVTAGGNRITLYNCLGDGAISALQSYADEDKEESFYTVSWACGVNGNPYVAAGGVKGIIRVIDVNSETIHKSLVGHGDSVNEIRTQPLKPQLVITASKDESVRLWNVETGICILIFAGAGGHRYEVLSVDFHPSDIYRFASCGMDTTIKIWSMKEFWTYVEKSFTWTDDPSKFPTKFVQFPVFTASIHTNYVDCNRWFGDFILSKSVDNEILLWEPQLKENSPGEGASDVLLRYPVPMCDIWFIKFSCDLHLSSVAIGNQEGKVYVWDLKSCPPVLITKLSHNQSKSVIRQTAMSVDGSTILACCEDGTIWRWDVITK
As to the kind of experiment: IP-MS rep 2. In outline:
as §1

The target of another test is T3, AT3G49850.1 TRB3 (Arabidopsis thaliana, UniProt Q9M2X3 1-295).
T3 construct: Endogenous protein found by mass spectrometry
T3 sequence: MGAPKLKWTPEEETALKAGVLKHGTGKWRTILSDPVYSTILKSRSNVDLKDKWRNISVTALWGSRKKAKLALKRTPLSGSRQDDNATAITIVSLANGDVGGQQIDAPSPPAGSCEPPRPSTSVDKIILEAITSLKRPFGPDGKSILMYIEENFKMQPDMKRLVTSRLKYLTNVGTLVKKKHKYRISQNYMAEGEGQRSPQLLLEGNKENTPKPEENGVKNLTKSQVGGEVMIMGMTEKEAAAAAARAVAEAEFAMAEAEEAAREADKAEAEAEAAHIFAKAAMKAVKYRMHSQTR
As to the kind of experiment: IP-MS rep 2. The method, boiled down: as §1

Test [1] concerns the target T4, AT1G49950.3 TRB1 (Arabidopsis thaliana, UniProt Q8VWK4 1-300, limits assumed).
T4 construct: Endogenous protein found by mass spectrometry
T4 sequence: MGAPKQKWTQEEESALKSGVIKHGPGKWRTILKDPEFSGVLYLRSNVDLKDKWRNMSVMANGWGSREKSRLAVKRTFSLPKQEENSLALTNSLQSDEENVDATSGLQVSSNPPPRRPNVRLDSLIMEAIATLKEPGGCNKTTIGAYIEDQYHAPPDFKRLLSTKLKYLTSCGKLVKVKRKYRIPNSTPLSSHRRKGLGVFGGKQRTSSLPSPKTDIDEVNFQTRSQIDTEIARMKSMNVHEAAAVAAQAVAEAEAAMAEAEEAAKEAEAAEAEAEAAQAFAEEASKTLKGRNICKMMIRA
As to the kind of experiment: IP-MS rep 2. The method, boiled down:
as §1

Test [2] addresses T5, AT2G23380.1 CLF (Arabidopsis thaliana, UniProt P93831 1-902).
T5 construct: Endogenous protein found by mass spectrometry; also called CURLY LEAF
T5 sequence (looked up): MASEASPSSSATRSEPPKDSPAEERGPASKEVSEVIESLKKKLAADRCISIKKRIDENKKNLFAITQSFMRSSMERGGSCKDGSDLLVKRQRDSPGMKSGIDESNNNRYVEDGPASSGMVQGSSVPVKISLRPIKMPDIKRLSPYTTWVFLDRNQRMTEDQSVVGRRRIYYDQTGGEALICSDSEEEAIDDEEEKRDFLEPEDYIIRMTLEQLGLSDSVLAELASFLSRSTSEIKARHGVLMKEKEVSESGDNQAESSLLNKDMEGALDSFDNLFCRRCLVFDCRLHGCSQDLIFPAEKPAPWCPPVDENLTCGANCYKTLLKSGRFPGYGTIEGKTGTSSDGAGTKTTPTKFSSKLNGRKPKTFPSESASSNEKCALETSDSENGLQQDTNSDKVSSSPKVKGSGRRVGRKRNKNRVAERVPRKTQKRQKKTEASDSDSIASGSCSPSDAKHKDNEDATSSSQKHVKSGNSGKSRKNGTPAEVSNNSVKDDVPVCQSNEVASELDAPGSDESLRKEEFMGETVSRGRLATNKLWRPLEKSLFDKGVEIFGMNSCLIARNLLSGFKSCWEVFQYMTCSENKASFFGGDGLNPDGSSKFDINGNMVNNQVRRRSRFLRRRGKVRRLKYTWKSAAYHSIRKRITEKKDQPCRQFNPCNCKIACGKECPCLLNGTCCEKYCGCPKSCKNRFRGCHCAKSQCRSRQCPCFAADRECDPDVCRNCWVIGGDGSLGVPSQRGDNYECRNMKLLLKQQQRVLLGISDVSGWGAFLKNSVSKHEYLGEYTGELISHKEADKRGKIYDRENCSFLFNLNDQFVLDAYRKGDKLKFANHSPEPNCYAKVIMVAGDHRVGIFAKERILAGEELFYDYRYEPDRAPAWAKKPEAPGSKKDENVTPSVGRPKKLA
As to the kind of experiment: IP-MS rep 2. In outline:
as §1

The next test addresses T6, AT5G08450.1 HDC1 (Arabidopsis thaliana).
T6 construct: Endogenous protein found by mass spectrometry
As to the kind of experiment: IP-MS rep 2. In outline: as §1

In test [3] the target is T4, AT1G49950.3 TRB1. The experiment in a line: IP-MS rep 1. In outline:
as §1

Test [4] has as its target T5, AT2G23380.1 CLF. As to the kind of experiment: IP-MS rep 1. The method, boiled down: as §1

B1: TRBIP2 (bait of the TRBIP2 IP-MS) (other, not shown: small tags and cut ends)
chain: MATNACLESDSLLPPRKRLLAGFKNQNSRISNESPSPPFASSSSSTTTSNGSSASAVVHTHHLDHLLNDQTRSPEELAQASKATAALAVKVAKAARATANEKAIIASKAVAAAKNALELFASFPAAETVSCKEPRLIRAINNSPRVLTDCSGHRNKKQKTLTSTMNDGNDVAGVVDSDDGTRVNGKLLLCDNTLKEKTEEESSSLGKRRGRVKLPLSMCAYKDQENGITLEENNLSVSKSEGYNGGVAQVIERPSWKCQDLKSPECVKQNKVVRS
notes: tag and its position not described; also called TRBIP2-1; TRBIP2-2
For B1, the IP-MS count in the test with AT5G67580.1 TRB2 came to 3; in the test with AT3G20740.1 FIE, 0; in the test with AT3G49850.1 TRB3 it was 6; in the test with AT1G49950.3 TRB1 [1] it was 5; in the test with AT2G23380.1 CLF [2], 0; with AT5G08450.1 HDC1, 0. The IP-MS count with AT1G49950.3 TRB1 [3] came out at 26; with AT2G23380.1 CLF [4] it was 0.
